Experimental findings from patent US20030220250A1 are described below.

The target in this test is Tie-2 tyrosine kinase receptor on HUVECs (human) (UniProt Q02763). Kind of test: cell-based or functional assay.
Sequence of UniProt Q02763 (Q02763 23-1124): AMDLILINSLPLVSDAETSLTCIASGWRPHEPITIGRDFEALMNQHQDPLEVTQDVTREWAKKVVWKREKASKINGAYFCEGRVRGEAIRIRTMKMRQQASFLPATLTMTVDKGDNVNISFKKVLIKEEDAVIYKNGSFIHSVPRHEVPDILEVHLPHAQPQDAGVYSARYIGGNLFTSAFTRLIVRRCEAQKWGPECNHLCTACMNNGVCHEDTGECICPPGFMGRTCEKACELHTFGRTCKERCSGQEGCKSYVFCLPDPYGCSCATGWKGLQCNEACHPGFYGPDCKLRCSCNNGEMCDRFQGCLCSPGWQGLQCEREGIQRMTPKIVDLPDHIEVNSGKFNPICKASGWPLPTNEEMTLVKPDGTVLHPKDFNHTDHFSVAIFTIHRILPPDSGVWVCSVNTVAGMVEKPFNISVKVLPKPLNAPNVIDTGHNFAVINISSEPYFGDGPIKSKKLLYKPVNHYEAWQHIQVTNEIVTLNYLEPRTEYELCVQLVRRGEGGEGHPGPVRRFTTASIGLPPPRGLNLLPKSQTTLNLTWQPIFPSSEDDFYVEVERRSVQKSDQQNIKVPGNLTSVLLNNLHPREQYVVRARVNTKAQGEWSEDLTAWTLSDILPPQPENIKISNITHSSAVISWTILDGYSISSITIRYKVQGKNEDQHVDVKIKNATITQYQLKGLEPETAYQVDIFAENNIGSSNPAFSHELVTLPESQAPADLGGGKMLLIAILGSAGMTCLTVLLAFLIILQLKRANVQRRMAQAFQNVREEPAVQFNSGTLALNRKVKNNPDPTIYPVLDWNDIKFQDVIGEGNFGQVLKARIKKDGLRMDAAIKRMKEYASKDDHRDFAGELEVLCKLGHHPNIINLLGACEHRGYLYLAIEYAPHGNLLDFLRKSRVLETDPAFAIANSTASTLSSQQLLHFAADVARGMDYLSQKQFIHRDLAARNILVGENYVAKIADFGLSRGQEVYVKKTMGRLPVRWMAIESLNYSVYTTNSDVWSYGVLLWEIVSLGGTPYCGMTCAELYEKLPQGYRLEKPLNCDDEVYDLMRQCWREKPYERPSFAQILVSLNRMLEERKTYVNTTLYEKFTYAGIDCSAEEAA

For “Angiopoietin-1 secreted by HT29 human colon cancer cells stably transfected with full-length Ang-1 cDNA in pcDNA3.1 (from UniProt Q15389 16-498) (ligand)”, the Tie-2 phosphorylation in HUVECs after 48 h transwell co-culture (Tie-2 immunoprecipitation, anti-phosphotyrosine Western blot, densitometry), versus co-culture with pcDNA-transfected HT29 cells was 2 fold.
